# Measured values reported in patent US20110263454A1, “Methods of Identifying Functional Characteristics of Promoters, Transcription Modifying Proteins and Transcription Modulating Agents” (Salk Institute for Biological Studies, priority 2008, published 2011).
# B1: RARa: Retinoic acid receptor α (NR1B1), nuclear hormone receptor cDNA driver (protein, UniProt P10276 1-462, looked up)
# Retinoic acid receptor alpha: MASNSSSCPTPGGGHLNGYPVPPYAFFFPPMLGGLSPPGALTTLQHQLPVSGYSTPSPATIETQSSSSEEIVPSPPSPPPLPRIYKPCFVCQDKSSGYHYGVSACEGCKGFFRRSIQKNMVYTCHRDKNCIINKVTRNRCQYCRLQKCFEVGMSKESVRNDRNKKKKEVPKPECSESYTLTPEVGELIEKVRKAHQETFPALCQLGKYTTNNSSEQRVSLDIDLWDKFSELSTKCIIKTVEFAKQLPGFTTLTIADQITLLKAACLDILILRICTRYTPEQDTMTFSDGLTLNRTQMHNAGFGPLTDLVFAFANQLLPLEMDDAETGLLSAICLICGDRQDLEQPDRVDMLQEPLLEALKVYVRKRRPSRPHMFPKMLMKITDLRSISAKGAERVITLKMEIPGSMPPLIQEMLENSEGLDTLSGQPGGGGRDGGGLAPPPGSCSPSLSPSSNRSSPATHSP
# B2: RARb: Retinoic acid receptor β (NR1B2), nuclear hormone receptor cDNA driver (protein, UniProt P10826 1-455, looked up)
# Retinoic acid receptor beta: MTTSGHACPVPAVNGHMTHYPATPYPLLFPPVIGGLSLPPLHGLHGHPPPSGCSTPSPATIETQSTSSEELVPSPPSPLPPPRVYKPCFVCQDKSSGYHYGVSACEGCKGFFRRSIQKNMIYTCHRDKNCVINKVTRNRCQYCRLQKCFEVGMSKESVRNDRNKKKKETSKQECTESYEMTAELDDLTEKIRKAHQETFPSLCQLGKYTTNSSADHRVRLDLGLWDKFSELATKCIIKIVEFAKRLPGFTGLTIADQITLLKAACLDILILRICTRYTPEQDTMTFSDGLTLNRTQMHNAGFGPLTDLVFTFANQLLPLEMDDTETGLLSAICLICGDRQDLEEPTKVDKLQEPLLEALKIYIRKRRPSKPHMFPKILMKITDLRSISAKGAERVITLKMEIPGSMPPLIQEMLENSEGHEPLTPSSSGNTAEHSPSISPSSVENSGVSQSPLVQ
# B3: RARg: Retinoic acid receptor γ (NR1B3), nuclear hormone receptor cDNA driver (protein, UniProt P13631 1-454, looked up)
# Retinoic acid receptor gamma: MATNKERLFAAGALGPGSGYPGAGFPFAFPGALRGSPPFEMLSPSFRGLGQPDLPKEMASLSVETQSTSSEEMVPSSPSPPPPPRVYKPCFVCNDKSSGYHYGVSSCEGCKGFFRRSIQKNMVYTCHRDKNCIINKVTRNRCQYCRLQKCFEVGMSKEAVRNDRNKKKKEVKEEGSPDSYELSPQLEELITKVSKAHQETFPSLCQLGKYTTNSSADHRVQLDLGLWDKFSELATKCIIKIVEFAKRLPGFTGLSIADQITLLKAACLDILMLRICTRYTPEQDTMTFSDGLTLNRTQMHNAGFGPLTDLVFAFAGQLLPLEMDDTETGLLSAICLICGDRMDLEEPEKVDKLQEPLLEALRLYARRRRPSQPYMFPRMLMKITDLRGISTKGAERAITLKMEIPGPMPPLIREMLENPEMFEDDSSQPGPHPNASSEDEVPGGQGKGGLKSPA
# B4: RVRb: Rev-Erb β (NR1D2, alternative name RVR), cDNA driver (protein, UniProt Q14995 1-579, looked up)
# Nuclear receptor subfamily 1 …: MEVNAGGVIAYISSSSSASSPASCHSEGSENSFQSSSSSVPSSPNSSNSDTNGNPKNGDLANIEGILKNDRIDCSMKTSKSSAPGMTKSHSGVTKFSGMVLLCKVCGDVASGFHYGVHACEGCKGFFRRSIQQNIQYKKCLKNENCSIMRMNRNRCQQCRFKKCLSVGMSRDAVRFGRIPKREKQRMLIEMQSAMKTMMNSQFSGHLQNDTLVEHHEQTALPAQEQLRPKPQLEQENIKSSSPPSSDFAKEEVIGMVTRAHKDTFMYNQEQQENSAESMQPQRGERIPKNMEQYNLNHDHCGNGLSSHFPCSESQQHLNGQFKGRNIMHYPNGHAICIANGHCMNFSNAYTQRVCDRVPIDGFSQNENKNSYLCNTGGRMHLVCPMSKSPYVDPHKSGHEIWEEFSMSFTPAVKEVVEFAKRIPGFRDLSQHDQVNLLKAGTFEVLMVRFASLFDAKERTVTFLSGKKYSVDDLHSMGAGDLLNSMFEFSEKLNALQLSDEEMSLFTAVVLVSADRSGIENVNSVEALQETLIRALRTLIMKNHPNEASIFTKLLLKLPDLRSLNNMHSEELLAFKVHP
# B5: PPARd: Peroxisome proliferator activated receptor δ (NR1C2), cDNA driver (protein, UniProt Q03181 1-441, looked up)
# Peroxisome …: MEQPQEEAPEVREEEEKEEVAEAEGAPELNGGPQHALPSSSYTDLSRSSSPPSLLDQLQMGCDGASCGSLNMECRVCGDKASGFHYGVHACEGCKGFFRRTIRMKLEYEKCERSCKIQKKNRNKCQYCRFQKCLALGMSHNAIRFGRMPEAEKRKLVAGLTANEGSQYNPQVADLKAFSKHIYNAYLKNFNMTKKKARSILTGKASHTAPFVIHDIETLWQAEKGLVWKQLVNGLPPYKEISVHVFYRCQCTTVETVRELTEFAKSIPSFSSLFLNDQVTLLKYGVHEAIFAMLASIVNKDGLLVANGSGFVTREFLRSLRKPFSDIIEPKFEFAVKFNALELDDSDLALFIAAIILCGDRPGLMNVPRVEAIQDTILRALEFHLQANHPDAQYLFPKLLQKMADLRQLVTEHAQMMQRIKKTETETSLHPLLQEIYKDMY
# Legend:
# mUCP2 promoter = experiment: NHR-promoter luciferase screen, mUCP2 promoter; type: cell-based, mouse; conditions: for Luc. act., normalized to lacZ / Normalized Luc. act., normalized to control: mUCP2 promoter reporter, co-transfected HR, with or without its ligand; for Normalized Luc. act., normalized to control: relative to control; for luciferase activity normalized to lacZ activity and to a control, mUCP2: mUCP2 promoter-luciferase, CV-1 cells, NHR +/- ligand, control = 1.00
# Outline: (§1)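 CV-1 cells were co-transfected with 50 ng NHR (homodimer or NHR/RXR heterodimer), 100 ng promoter-luciferase construct and 50 ng LacZ. Luciferase was normalized to LacZ and to a no-NHR/no-ligand control.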
# mCAR promoter = experiment: NHR-promoter luciferase screen, mCAR promoter; type: cell-based, mouse; conditions: for luciferase activity normalized to lacZ activity and to a control, mCAR: mCAR promoter-luciferase, CV-1 cells, NHR +/- ligand, control = 1.00; for Luc. act., normalized to lacZ / Normalized Luc. act., normalized to control: mCAR promoter, HR/ligand component
# Outline: as §1
# mDio2 promoter = experiment: NHR-promoter luciferase screen, mDio2 promoter; type: cell-based, mouse; conditions: for Luc. act., normalized to lacZ / Normalized Luc. act., normalized to control: Dio2, HR component without or with its ligand; for mDio2 promoter reporter activity: transcription factor +/- ligand, control = 1.00
# Outline: as §1
# hPPARg2 promoter = experiment: NHR-promoter luciferase screen, hPPARg2 promoter; type: cell-based, human; conditions: for Luc. act., normalized to lacZ / Normalized Luc. act., normalized to control: PPARG2 promoter, hormone receptor with or without its ligand; for Normalized Luc. act., normalized to control: relative to control; for Results of assays of transcription factor (+/- ligand) with hPPARg2: Table 6d, luciferase activity relative to control (control = 1.00)
# Outline: as §1
# hIFNg promoter = experiment: NHR-promoter luciferase screen, hIFNg promoter; type: cell-based, human; conditions: for Luc. act., normalized to lacZ / Normalized Luc. act., normalized to control: IFNg promoter, HR component without or with ligand; for hIFNg promoter reporter activity: transcription factor +/- ligand, control = 1.00
# Outline: as §1
# mABCA1 promoter = experiment: NHR-promoter luciferase screen, mABCA1 promoter; type: cell-based, mouse; conditions: for Luc. act., normalized to lacZ / Normalized Luc. act., normalized to control: ABCA1 promoter, hormone receptor with or without its ligand; for Normalized Luc. act., normalized to control: relative to control; for mABCA1 promoter reporter activity: transcription factor +/- ligand, control = 1.00
# Outline: as §1
Molecule,"Luc. act., normalized to lacZ (mUCP2 promoter)","Normalized Luc. act., normalized to control (mUCP2 promoter)","luciferase activity normalized to lacZ activity and to a control, mUCP2 (mUCP2 promoter)","luciferase activity normalized to lacZ activity and to a control, mCAR (mCAR promoter)","Luc. act., normalized to lacZ (mCAR promoter)","Normalized Luc. act., normalized to control (mCAR promoter)","Luc. act., normalized to lacZ (mDio2 promoter)","Normalized Luc. act., normalized to control (mDio2 promoter)",mDio2 promoter reporter activity (mDio2 promoter),"Luc. act., normalized to lacZ (hPPARg2 promoter)","Normalized Luc. act., normalized to control (hPPARg2 promoter)",Results of assays of transcription factor (+/- ligand) with hPPARg2 (hPPARg2 promoter),"Luc. act., normalized to lacZ (hIFNg promoter)","Normalized Luc. act., normalized to control (hIFNg promoter)",hIFNg promoter reporter activity (hIFNg promoter),"Luc. act., normalized to lacZ (mABCA1 promoter)","Normalized Luc. act., normalized to control (mABCA1 promoter)",mABCA1 promoter reporter activity (mABCA1 promoter)
B1,232.0,2.1,2.11,1.22,46.3,1.2,40.3,2.6,2.56,3.5,1.7,1.73,22.0,1.4,1.39,24.6,4.4,4.39
B2,277.3,2.5,2.52,1.30,49.6,1.3,32.7,2.1,2.08,3.4,1.7,1.72,24.4,1.5,1.53,36.8,6.6,6.55
B3,242.5,2.2,2.21,1.24,47.1,1.2,35.2,2.2,2.24,3.0,1.5,1.51,22.8,1.4,1.43,26.4,4.7,4.69
B4,174.4,1.6,1.59,0.91,34.5,0.9,19.7,1.3,1.26,1.0,0.5,0.48,19.5,1.2,1.22,36.8,6.6,6.55
B5,172.7,1.6,1.57,0.79,30.1,0.8,19.1,1.2,1.21,2.5,1.2,1.24,19.72,1.2,1.24,13.8,2.5,2.46
